# B1: TAP-tagged Fun30 (Function unknown now 30) (enzyme, S. cerevisiae, UniProt P31380 1-1131, looked up)
# chain: MSGSHSNDEDDVVQVPETSSPTKVASSSPLKPTSPTVPDASVASLRSRFTFKPSDPSEGAHTSKPLPSGSPEVALVNLAREFPDFSQTLVQAVFKSNSFNLQSARERLTRLRQQRQNWTWNKNASPKKSETPPPVKKSLPLANTGRLSSIHGNINNKSSKITVAKQKTSIFDRYSNVINQKQYTFELPTNLNIDSEALSKLPVNYNKKRRLVRADQHPIGKSYESSATQLGSAREKLLANRKYGRHANDNDEEEEESMMTDDDDASGDDYTESTPQINLDEQVLQFINDSDIVDLSDLSDTTMHKAQLIASHRPYSSLNAFVNTNFNDKDTEENASNKRKRRAAASANESERLLDKITQSIRGYNAIESVIKKCSSYGDLVTSQMKKWGVQVEGDNSELDLMNLGEDDDDDNDDGNNDNNNSNNNNTAGADATSKEKEDTKAVVEGFDETSAEPTPAPAPAPVERETKRIRNTTKPKVVEDEDDDVDLEAIDDELPQSEHEDDDYEEEDEDYNDEEEDVEYDDGDDDDDDDDEFVATRKNTHVISTTSRNGRKPIVKFFKGKPRLLSPEISLKDYQQTGINWLNLLYQNKMSCILADDMGLGKTCQVISFFAYLKQINEPGPHLVVVPSSTLENWLREFQKFAPALKIEPYYGSLQEREELRDILERNAGKYDVIVTTYNLAAGNKYDVSFLKNRNFNVVVYDEGHMLKNSTSERFAKLMKIRANFRLLLTGTPLQNNLKELMSLLEFIMPNLFISKKESFDAIFKQRAKTTDDNKNHNPLLAQEAITRAKTMMKPFILRRRKDQVLKHLPPKHTHIQYCELNAIQKKIYDKEIQIVLEHKRMIKDGELPKDAKEKSKLQSSSSKNLIMALRKASLHPLLFRNIYNDKIITKMSDAILDEPAYAENGNKEYIKEDMSYMTDFELHKLCCNFPNTLSKYQLHNDEWMQSGKIDALKKLLKTIIVDKQEKVLIFSLFTQVLDILEMVLSTLDYKFLRLDGSTQVNDRQLLIDKFYEDKDIPIFILSTKAGGFGINLVCANNVIIFDQSFNPHDDRQAADRAHRVGQTKEVNITTLITKDSIEEKIHQLAKNKLALDSYISEDKKSQDVLESKVSDMLEDIIYDENSKPKGTKE
# Target: the molecule itself
# Test: SEC
protein,measurement,value
B1,stoichiometry N,2

# Reference: article PMC2843198 (The Journal of Biological Chemistry, 2010)
